According to the RNAGym collection of RNA variant scans (doi:10.1093/molbev/msab373):

B1: Azoarcus group I ribozyme (parent)
chain: GUGCCUUGCGCCGGGAAACCACGCAAGGGAUGGUGUCAAAUUCGGCGAAACCUAAGCGCCCGCCCGGGCGUAUGGCAACGCCGAGCCAAGCUUCGGCGCCUGCGCCGAUGAAGGUGUAGAGACUAGACGGCACCCACCUAAGGCAAACGCUAUGGUGAAGGCAUAGUCCAGGGAGUGGCGAAAGUCACACAAACCGG

Variants of: B1
Experiment: reverse-splicing fitness (ratio to wild type); higher = more active; in vitro selection; Mg2+ level not given
In short: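 An in vitro group I ribozyme library with randomized positions was T7-transcribed and gel-purified. In triplicate, 10 pmol RNA in EPPS pH 7.5 was reacted with 50 pmoles of a 30-nt RNA substrate for 1 h at 37 °C across several added MgCl2 levels (1–48 mM), then stopped with EDTA. Products were reverse transcribed from a substrate-complementary primer, PCR-amplified and sequenced (HiSeq 4000). Fitness is a variant's read proportion after selection over that before, normalised to wild type.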

| Variant | reverse-splicing fitness |
| --- | --- |
| C82A A120U A145G C169U U176A | 0.00354 |
| C82A A120U A145G C150G C169G U176C | 0.00694 |
| C82A A120U A145G C150G C169G U176G | 0.00415 |
| C82A A120U A145G C150G C169G U176A | 0.00824 |
| C82A A145C C169G U176A | 0.0247 |
| C82A A145C C169G U176C | 0.0138 |
| C82A A145C C169G U176G | 0.00402 |
| C82A A120U A145G C150A C169A | 0.00563 |
| C82A A120U A145G C150A C169U | 0.00423 |
| C82A A120U A145G C150A C169G | 0.00494 |
| C82A A145C C150U C169U U176A | 0.0125 |
| C82A A145C C150U C169U U176G | 0.00481 |
| C82A A145C C150U C169U U176C | 0.00806 |
| C82A A145C C150A C169U U176G | 0.00553 |
| C82A A145C C150A C169U U176A | 0.015 |
| C82A A145C C150A C169U U176C | 0.00759 |
| C82A A120U A145G C150U U176G | 0.00635 |
| C82A A120U A145G C150U U176C | 0.0478 |
| C82A A120U A145G C150U U176A | 0.0246 |
| C82A A120U A145C C150G U176A | 0.00523 |
| C82A A120U A145C C150G U176G | 0.00275 |

| Variant | reverse-splicing fitness |
| --- | --- |
| C82A A120U A145C C150G U176C | 0.00832 |
| C82A A120U A145G C150G C169A | 0.0097 |
| C82A A120U A145G C150G C169G | 0.00686 |
| C82A A120U A145G C150G C169U | 0.00784 |
| C82A A120U C150A | 0.016 |
| C82A A120U C150G | 0.0131 |
| C82A A120U C150U | 0.0723 |
| C82A A120U A145G C169U | 0.0064 |
| C82A A120U A145G C169G | 0.00528 |
| C82A A120U A145G C169A | 0.00287 |
| C82A A145C C150A C169U | 0.00913 |
| C82A A145C C150A C169G | 0.00755 |
| C82A A145C C150A C169A | 0.00702 |
| C82A A120U A145C C150U C169U U176G | 0.00212 |
| C82A A120U A145C C150U C169U U176A | 0.00245 |
| C82A A120U A145C C150U C169U U176C | 0.00257 |
| C82A A120U A145U C150A C169U U176G | 0.00196 |
| C82A A120U A145U C150A C169U U176C | 0.0026 |
| C82A A120U A145U C150A C169U U176A | 0.00228 |
| C82A A120U A145C C150A C169G U176G | 0.00139 |
| C82A A120U A145C C150A C169G U176C | 0.00352 |

| Variant | reverse-splicing fitness |
| --- | --- |
| C82A A120U A145C C150A C169G U176A | 0.00253 |
| C82A A145C C169U U176C | 0.0108 |
| C82A A145C C169U U176A | 0.0128 |
| C82A A145C C169U U176G | 0.00467 |
| C82A A145C C150G C169G U176C | 0.0067 |
| C82A A145C C150G C169G U176G | 0.00508 |
| C82A A145C C150G C169G U176A | 0.00895 |
| C82A A120U A145C C169A U176C | 0.0019 |
| C82A A120U A145C C169A U176G | 0.00126 |
| C82A A120U A145C C169A U176A | 0.00193 |
| C82A A120U C150G U176C | 0.00779 |
| C82A A120U C150G U176G | 0.00281 |
| C82A A120U C150G U176A | 0.00566 |
| C82A A120U A145G C150A C169G U176A | 0.00661 |
| C82A A120U A145G C150A C169G U176G | 0.00227 |
| C82A A120U A145G C150A C169G U176C | 0.00523 |
| C82A A120U A145G C150G C169A U176G | 0.00515 |
| C82A A120U A145G C150G C169A U176A | 0.0135 |
| C82A A120U A145G C150G C169A U176C | 0.0082 |
| C82A A120U A145C C150G C169G U176A | 0.00256 |
| C82A A120U A145C C150G C169G U176C | 0.00192 |

| Variant | reverse-splicing fitness |
| --- | --- |
| C82A A120U A145C C150G C169G U176G | 0.00211 |
| C82A A120U A145U C150U C169U U176G | 0.00221 |
| C82A A120U A145U C150U C169U U176C | 0.00354 |
| C82A A120U A145U C150U C169U U176A | 0.00274 |
| C82A A120U A145C C150U C169G U176C | 0.00201 |
| C82A A120U A145C C150U C169G U176A | 0.00237 |
| C82A A120U A145C C150U C169G U176G | 0.00196 |
| C82A A145G C150G C169A U176C | 0.0124 |
| C82A A145G C150G C169A U176G | 0.00857 |
| C82A A145G C150G C169A U176A | 0.015 |
| C82A A120U A145G C169G U176C | 0.00373 |
| C82A A120U A145G C169G U176A | 0.00295 |
| C82A A120U A145G C169G U176G | 0.00125 |
| C82A A120U A145G C150U C169A U176G | 0.00195 |
| C82A A120U A145G C150U C169A U176C | 0.00287 |
| C82A A120U A145G C150U C169A U176A | 0.00597 |
| C82A A120U A145C C150U U176G | 0.00464 |
| C82A A120U A145C C150U U176C | 0.0147 |
| C82A A120U A145C C150U U176A | 0.00945 |
| C82A A120U A145G C150U C169G U176C | 0.0042 |
| C82A A120U A145G C150U C169G U176G | 0.00214 |
